Experimental data from publication PMC2115537 (The Journal of Cell Biology, 1989).
One block for each binder: values may come before it.

Molecular target: F-actin (rabbit skeletal muscle actin filaments) (rabbit, UniProt P68135 1-377)
Test: co-sedimentation

- Kd: 2 µM
B1: dephosphorylated synapsin I (natural protein)
chain: not shown

- Kd: 1.8 µM
B2: synapsin I phosphorylated on all three sites (natural protein)
chain: not shown
modifications: phosphorylated on all three sites (sites 1, 2 and 3); 2.6 mol phosphate/mol synapsin I
